Values quoted from earlier work as cited in US20220280635A1, “PARTICLES FOR STIMULATING AN IMMUNE RESPONSE AGAINST VIRAL INFECTIONS” (FINNCURE OY, priority 2020, published 2022).

Biological target: ACE2 (Homo sapiens, UniProt Q9BYF1)
Details: simulation, ref [8]

ACE2, sequence (Q9BYF1 18-805): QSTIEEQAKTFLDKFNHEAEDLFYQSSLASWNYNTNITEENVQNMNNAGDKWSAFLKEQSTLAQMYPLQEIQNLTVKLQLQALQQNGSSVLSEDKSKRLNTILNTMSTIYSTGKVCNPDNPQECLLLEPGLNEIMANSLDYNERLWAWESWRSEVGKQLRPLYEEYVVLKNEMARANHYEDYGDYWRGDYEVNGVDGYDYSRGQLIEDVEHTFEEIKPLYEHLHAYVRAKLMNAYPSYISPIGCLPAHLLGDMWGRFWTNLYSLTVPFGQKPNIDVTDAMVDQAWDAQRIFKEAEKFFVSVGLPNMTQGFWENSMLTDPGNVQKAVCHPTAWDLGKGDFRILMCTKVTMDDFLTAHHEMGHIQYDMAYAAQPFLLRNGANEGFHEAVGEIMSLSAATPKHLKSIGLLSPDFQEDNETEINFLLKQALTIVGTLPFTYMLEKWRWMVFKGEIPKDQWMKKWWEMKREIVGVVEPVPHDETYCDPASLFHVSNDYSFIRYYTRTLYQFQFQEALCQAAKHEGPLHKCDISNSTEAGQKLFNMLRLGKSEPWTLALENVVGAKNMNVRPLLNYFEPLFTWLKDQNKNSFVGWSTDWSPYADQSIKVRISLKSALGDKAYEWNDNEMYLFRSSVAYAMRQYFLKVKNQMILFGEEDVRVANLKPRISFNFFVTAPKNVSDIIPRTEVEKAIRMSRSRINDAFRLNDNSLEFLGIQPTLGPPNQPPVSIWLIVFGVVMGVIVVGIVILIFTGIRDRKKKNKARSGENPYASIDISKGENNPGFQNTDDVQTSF

Substance | binding affinity towards the ACE2 receptor compared with YKYRYL
YKYNYL: alternative synthetic hexapeptide variant (Potential alternative synthetic hexapeptide variant) | even stronger binding affinity
YKYNYI: alternative synthetic hexapeptide variant (Potential alternative synthetic hexapeptide variant) | even stronger binding affinity
